We go through three substances from publication doi:10.1101/2024.07.19.604271.

Like-named read-outs stand apart in the source and are kept apart here.

Assay [1] deals with stabilized microtubules polymerized from pig brain tubulin (GMPCPP-stabilized or Taxotere-stabilized) (pig). Briefly: TIRF microscopy of fluorescent kinesin on surface-attached microtubules.
For assay [2] the target is unchanged. The assay is described as above. This is another data set of the same source.
The target of assay [3] is full-length Kip2-Δ70 (S. cerevisiae) (UniProt P28743). Briefly: TIRF microscopy, tubulin transport assay.

“bKip2-P1 (motor domain P1 mutant, K294R K296R) (from UniProt P28743 1-560) (domain or fragment)”: the fold lower affinity than bKip2-WT was 3.5 fold in assay [1] and 2.8 fold in assay [2].
Consider “bKip2-Δ70 (from UniProt P28743 71-560) (domain or fragment)”, for which, in assay [1], the fold lower affinity than bKip2-WT was found to be 1.3 fold.
Substance “free tubulin dimers, ATTO-488-labelled, from pig brain (complex)” came in with a fold reduction of tubulin transport events against wild type Kip2 in assay [3] of 3 to 8 fold.
